Measured values: US20250171534A1 (D2M BIOTHERAPEUTICS, published 2025)

Tests used:
[1] = molecular target: T1, LILRB2-ECD-His (SinoBiological, Cat #: 14132-H08H-B) (Homo sapiens (Human), UniProt Q8N423 22-460, biotinylated (site not stated)); test: competition ELISA: plate coated with ANGPTL5, biotinylated LILRB2 pre-incubated with titrated antibody, streptavidin-HRP and TMB, OD450
[2] = molecular target: T2, LILRA6 expressed on cells (human, UniProt Q6PI73 24-481); test: flow cytometry on CHO-LILRA6 cells (CHO-RA6), titrated antibody, labelled anti-human Fc, gMFI
T2 construct: whole, on cells; GFP-tagged; also called human LILRA6; CHO-LILRA6

[3] = molecular target: T3, human LILRB2 expressed on cells (human, UniProt Q8N423 22-597); test: flow cytometry on CHO-LILRB2 cells (CHO-RB2), titrated antibody, labelled anti-human Fc, gMFI
T3 construct: In 293T cells it was expressed from pCMV3-LILRB2-GFP; also called CHO-LILRB2; Jurkat-LILRB2

[4] = molecular target: T4, human LILRB1 expressed on cells (human, UniProt Q8NHL6 24-650); test: flow cytometry on CHO-LILRB1 cells, non-linear fit of the curves of FIG. 26A
T4 construct: In 293T cells it was expressed from pCMV3-LILRB1-GFP; also called CHO-LILRB1; Jurkat-LILRB1

[5] = molecular target: T4, human LILRB1 expressed on cells; test: flow cytometry, Jurkat-LILRB1 cells
[6] = molecular target: T3, human LILRB2 expressed on cells; test: flow cytometry on CHO-LILRB2 cells, non-linear fit of the curves of FIG. 26B
[7] = molecular target: T1, LILRB2-ECD-His (SinoBiological, Cat #: …); test: competition ELISA: plate coated with SEMA4A, biotinylated LILRB2 pre-incubated with titrated antibody, streptavidin-HRP and TMB, OD450
[8] = molecular target: T5, LILRA1 expressed on cells (human, UniProt O75019 17-489); test: flow cytometry on CHO-LILRA1 cells (CHO-RA1), titrated antibody, labelled anti-human Fc, gMFI
T5 construct: whole, on cells; GFP-tagged; also called human LILRA1; CHO-LILRA1

[9] = molecular target: T5, LILRA1 expressed on cells; test: flow cytometry on CHO-LILRA1 cells, non-linear fit of the curves of FIG. 26E
[10] = molecular target: T6, LILRB1-ECD-HIS (SinoBiological Cat #: 16014-H02H) (human, UniProt Q8NHL6 24-461); test: SPR (Carterra), LILRB1-ECD-his
T6 construct: Bought protein; also called monomeric antigen LILRB1-ECD-HIS; not shown: His tag

[11] = molecular target: T6, LILRB1-ECD-HIS (SinoBiological Cat #: …); test: BLI (Gator), RB1-ECD-his
[12] = molecular target: T4, human LILRB1 expressed on cells; test: flow cytometry on CHO-LILRB1 cells (CHO-RB1), titrated antibody, labelled anti-human Fc, gMFI
[13] = molecular target: T3, human LILRB2 expressed on cells; test: flow cytometry on CHO-LILRB2 cells (CHO-RB2); D2M002-126 as stock or kept in PBS or human plasma at 37 °C for 1, 2 or 3 weeks; labelled anti-human Fc, gMFI
[14] = molecular target: T1, LILRB2-ECD-His (SinoBiological, Cat #: …); test: competition ELISA: plate coated with MAG, biotinylated LILRB2 pre-incubated with titrated antibody, streptavidin-HRP and TMB, OD450
[15] = molecular target: T4, human LILRB1 expressed on cells; test: flow cytometry on CHO-LILRB1 cells (CHO-RB1); D2M002-126 as stock or kept in PBS or human plasma at 37 °C for 1, 2 or 3 weeks; labelled anti-human Fc, gMFI
[16] = molecular target: T7, LILRB2-ECD-HIS (SinoBiological Cat #: 14132-H02H) (human, UniProt Q8N423 22-460); test: SPR (Carterra), LILRB2-ECD-his
T7 construct: Bought protein; also called monomeric antigen LILRB2-ECD-HIS; not shown: His tag

[17] = molecular target: T4, human LILRB1 expressed on cells; test: flow cytometry, Jurkat-LILRB1 cells; blocked ligand: APC HLA-G trimer tetramer
[18] = molecular target: T3, human LILRB2 expressed on cells; test: flow cytometry, Jurkat-LILRB2 cells; blocked ligand: APC HLA-G monomer tetramer
[19] = molecular target: T7, LILRB2-ECD-HIS (SinoBiological Cat #: …); test: BLI (Gator), RB2-ECD-his
[20] = molecular target: T1, LILRB2-ECD-His (SinoBiological, Cat #: …); test: competition ELISA: plate coated with ANGPTL2, biotinylated LILRB2 pre-incubated with titrated antibody, streptavidin-HRP and TMB, OD450
[21] = molecular target: T3, human LILRB2 expressed on cells; test: flow cytometry, Jurkat-LILRB2 cells
[22] = molecular target: T8, LILRB3 expressed on cells (human, UniProt O75022 24-631); test: flow cytometry on CHO-LILRB3 cells (CHO-RB3), titrated antibody, labelled anti-human Fc, gMFI
T8 construct: whole, on cells; Expressed with a GFP tag from the bought plasmid; also called human LILRB3; CHO-LILRB3

[23] = molecular target: T1, LILRB2-ECD-His (SinoBiological, Cat #: …); test: competition ELISA: plate coated with CD1C, biotinylated LILRB2 pre-incubated with titrated antibody, streptavidin-HRP and TMB, OD450
[24] = molecular target: T1, LILRB2-ECD-His (SinoBiological, Cat #: …); test: competition ELISA: plate coated with CD1D, biotinylated LILRB2 pre-incubated with titrated antibody, streptavidin-HRP and TMB, OD450
[25] = molecular target: T9, LILRB4 expressed on 293T cells (UniProt Q8NHJ6 22-448, limits assumed); test: flow cytometry on 293T cells transiently expressing LILRB4, APC anti-human Fc; gMFI as fold to IgG staining
T9 construct: whole, on cells; GFP-tagged, transient

[26] = molecular target: T3, human LILRB2 expressed on cells; test: flow cytometry on 293T cells transiently expressing LILRB2, APC anti-human Fc; gMFI as fold to IgG staining
[27] = molecular target: T4, human LILRB1 expressed on cells; test: flow cytometry, CHO-LILRB1 cells; blocked ligand: APC HLA-G trimer tetramer
[28] = molecular target: T5, LILRA1 expressed on cells; test: flow cytometry on 293T cells transiently expressing LILRA1, APC anti-human Fc; gMFI as fold to IgG staining
[29] = molecular target: T10, LILRA3 expressed on 293T cells (UniProt Q8N6C8 24-439, limits assumed); test: flow cytometry on 293T cells transiently expressing LILRA3, APC anti-human Fc; gMFI as fold to IgG staining
T10 construct: whole, on cells; GFP-tagged, transient

[30] = molecular target: T4, human LILRB1 expressed on cells; test: flow cytometry, CHO-LILRB1 cells
[31] = molecular target: T11, LILRA4 expressed on 293T cells (UniProt P59901 24-499, limits assumed); test: flow cytometry on 293T cells transiently expressing LILRA4, APC anti-human Fc; gMFI as fold to IgG staining
T11 construct: whole, on cells; GFP-tagged, transient

[32] = molecular target: T12, LILRB5 expressed on 293T cells (UniProt O75023 24-590, limits assumed); test: flow cytometry on 293T cells transiently expressing LILRB5, APC anti-human Fc; gMFI as fold to IgG staining
T12 construct: whole, on cells; GFP-tagged, transient

[33] = molecular target: T13, LILRA2 expressed on 293T cells (UniProt Q8N149 24-483, limits assumed); test: flow cytometry on 293T cells transiently expressing LILRA2, APC anti-human Fc; gMFI as fold to IgG staining
T13 construct: whole, on cells; GFP-tagged, transient

[34] = molecular target: T14, LILRA5 expressed on 293T cells (UniProt A6NI73 42-299, limits assumed); test: flow cytometry on 293T cells transiently expressing LILRA5, APC anti-human Fc; gMFI as fold to IgG staining
T14 construct: whole, on cells; GFP-tagged, transient

[35] = molecular target: T8, LILRB3 expressed on cells; test: flow cytometry on 293T cells transiently expressing LILRB3, APC anti-human Fc; gMFI as fold to IgG staining
[36] = molecular target: T4, human LILRB1 expressed on cells; test: flow cytometry, CHO-LILRB1 cells; remark: listed apart in the source
[37] = molecular target: T4, human LILRB1 expressed on cells; test: flow cytometry, CHO-LILRB1 cells; remark: listed apart in the source
[38] = molecular target: T2, LILRA6 expressed on cells; test: flow cytometry on 293T cells transiently expressing LILRA6, APC anti-human Fc; gMFI as fold to IgG staining

T1 sequence (Q8N423 other isoform, or with tags, fused parts or gaps H08H H08H): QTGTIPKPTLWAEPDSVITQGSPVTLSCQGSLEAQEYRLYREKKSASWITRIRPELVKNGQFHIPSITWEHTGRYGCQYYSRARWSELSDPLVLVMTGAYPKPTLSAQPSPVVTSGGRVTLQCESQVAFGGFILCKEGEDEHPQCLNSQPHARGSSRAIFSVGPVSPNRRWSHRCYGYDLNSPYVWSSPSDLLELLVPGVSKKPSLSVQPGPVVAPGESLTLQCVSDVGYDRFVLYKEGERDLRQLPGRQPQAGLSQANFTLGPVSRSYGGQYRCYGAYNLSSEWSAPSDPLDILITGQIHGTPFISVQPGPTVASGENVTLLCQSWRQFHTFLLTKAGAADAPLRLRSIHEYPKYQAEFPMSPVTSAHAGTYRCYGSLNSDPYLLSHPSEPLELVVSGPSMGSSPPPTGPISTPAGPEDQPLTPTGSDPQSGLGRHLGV
T7 sequence (Q8N423 other isoform, or with tags, fused parts or gaps H02H H02H): as the sequence (Q8N423 other isoform, or with tags, fused parts or gaps H08H H08H) above
T5 sequence (O75019 17-489): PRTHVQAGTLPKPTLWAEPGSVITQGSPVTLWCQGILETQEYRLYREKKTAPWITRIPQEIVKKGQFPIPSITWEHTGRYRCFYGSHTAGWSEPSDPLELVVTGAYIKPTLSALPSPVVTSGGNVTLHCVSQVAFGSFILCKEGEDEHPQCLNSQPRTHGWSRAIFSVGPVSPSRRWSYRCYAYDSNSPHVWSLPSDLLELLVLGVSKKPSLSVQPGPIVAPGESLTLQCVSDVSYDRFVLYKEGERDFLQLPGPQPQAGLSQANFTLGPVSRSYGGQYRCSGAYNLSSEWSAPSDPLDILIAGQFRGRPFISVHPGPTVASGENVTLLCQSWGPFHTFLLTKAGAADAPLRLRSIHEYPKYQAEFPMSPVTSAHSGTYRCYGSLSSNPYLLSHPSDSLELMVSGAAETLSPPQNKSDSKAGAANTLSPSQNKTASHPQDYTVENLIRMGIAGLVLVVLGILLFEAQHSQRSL
T4 sequence (Q8NHL6 other isoform, or with tags, fused parts or gaps limits assumed): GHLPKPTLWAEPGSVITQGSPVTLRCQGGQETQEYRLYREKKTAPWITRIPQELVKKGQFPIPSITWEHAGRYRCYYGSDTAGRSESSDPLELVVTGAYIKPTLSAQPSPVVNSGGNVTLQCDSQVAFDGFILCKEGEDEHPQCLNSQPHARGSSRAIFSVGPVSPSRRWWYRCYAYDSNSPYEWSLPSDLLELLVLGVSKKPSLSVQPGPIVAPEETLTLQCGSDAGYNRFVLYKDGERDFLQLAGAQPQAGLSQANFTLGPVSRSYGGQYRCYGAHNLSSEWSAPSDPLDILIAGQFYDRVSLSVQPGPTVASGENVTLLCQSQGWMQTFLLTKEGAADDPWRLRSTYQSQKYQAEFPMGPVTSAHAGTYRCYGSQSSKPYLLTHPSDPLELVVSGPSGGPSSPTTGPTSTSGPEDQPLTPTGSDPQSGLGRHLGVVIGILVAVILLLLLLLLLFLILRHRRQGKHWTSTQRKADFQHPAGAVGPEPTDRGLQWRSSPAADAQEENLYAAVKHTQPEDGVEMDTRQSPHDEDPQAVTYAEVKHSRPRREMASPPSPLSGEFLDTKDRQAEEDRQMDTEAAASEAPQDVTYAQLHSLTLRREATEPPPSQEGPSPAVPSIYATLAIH
T6 sequence (Q8NHL6 other isoform, or with tags, fused parts or gaps H02H H02H): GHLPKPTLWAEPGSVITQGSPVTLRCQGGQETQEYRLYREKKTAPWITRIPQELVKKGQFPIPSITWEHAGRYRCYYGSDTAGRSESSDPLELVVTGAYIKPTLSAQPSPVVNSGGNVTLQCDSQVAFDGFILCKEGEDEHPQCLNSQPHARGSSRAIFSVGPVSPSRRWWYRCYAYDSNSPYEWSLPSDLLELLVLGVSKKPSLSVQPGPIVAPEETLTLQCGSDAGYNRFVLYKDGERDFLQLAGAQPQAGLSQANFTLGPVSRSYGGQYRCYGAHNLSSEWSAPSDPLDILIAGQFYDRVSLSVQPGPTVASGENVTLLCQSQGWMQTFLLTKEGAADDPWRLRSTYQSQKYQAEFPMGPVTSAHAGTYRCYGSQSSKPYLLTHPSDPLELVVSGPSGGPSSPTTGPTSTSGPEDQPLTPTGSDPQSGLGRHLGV
T3 sequence (Q8N423 other isoform, or with tags, fused parts or gaps limits assumed): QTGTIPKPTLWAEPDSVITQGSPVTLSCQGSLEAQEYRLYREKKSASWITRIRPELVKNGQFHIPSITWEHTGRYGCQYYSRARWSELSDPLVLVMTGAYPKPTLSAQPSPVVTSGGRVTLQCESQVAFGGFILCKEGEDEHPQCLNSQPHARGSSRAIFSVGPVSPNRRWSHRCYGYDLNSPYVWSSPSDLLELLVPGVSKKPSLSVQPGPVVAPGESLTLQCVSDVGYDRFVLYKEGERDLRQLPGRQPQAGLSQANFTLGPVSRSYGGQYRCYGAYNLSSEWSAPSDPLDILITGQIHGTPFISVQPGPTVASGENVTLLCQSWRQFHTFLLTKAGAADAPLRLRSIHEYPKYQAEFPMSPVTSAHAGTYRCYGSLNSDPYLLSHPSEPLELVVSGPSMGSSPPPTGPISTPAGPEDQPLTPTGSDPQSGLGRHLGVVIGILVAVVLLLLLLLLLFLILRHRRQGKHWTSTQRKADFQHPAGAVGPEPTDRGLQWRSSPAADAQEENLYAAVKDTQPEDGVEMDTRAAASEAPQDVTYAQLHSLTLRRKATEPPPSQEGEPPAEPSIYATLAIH
T2 sequence (Q6PI73 24-481): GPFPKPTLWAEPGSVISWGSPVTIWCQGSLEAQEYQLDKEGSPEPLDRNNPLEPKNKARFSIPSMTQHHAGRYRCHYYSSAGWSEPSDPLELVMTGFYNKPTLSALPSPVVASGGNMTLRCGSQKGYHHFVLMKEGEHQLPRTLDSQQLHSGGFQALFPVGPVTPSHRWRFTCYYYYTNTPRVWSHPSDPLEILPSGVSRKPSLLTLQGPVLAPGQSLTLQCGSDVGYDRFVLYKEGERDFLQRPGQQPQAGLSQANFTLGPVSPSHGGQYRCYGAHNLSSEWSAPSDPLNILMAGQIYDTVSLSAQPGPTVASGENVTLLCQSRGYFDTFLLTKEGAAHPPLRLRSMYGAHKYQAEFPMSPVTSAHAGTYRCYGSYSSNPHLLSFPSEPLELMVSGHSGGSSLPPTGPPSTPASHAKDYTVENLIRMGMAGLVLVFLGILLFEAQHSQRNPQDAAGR
T10 sequence (Q8N6C8 24-439 limits assumed): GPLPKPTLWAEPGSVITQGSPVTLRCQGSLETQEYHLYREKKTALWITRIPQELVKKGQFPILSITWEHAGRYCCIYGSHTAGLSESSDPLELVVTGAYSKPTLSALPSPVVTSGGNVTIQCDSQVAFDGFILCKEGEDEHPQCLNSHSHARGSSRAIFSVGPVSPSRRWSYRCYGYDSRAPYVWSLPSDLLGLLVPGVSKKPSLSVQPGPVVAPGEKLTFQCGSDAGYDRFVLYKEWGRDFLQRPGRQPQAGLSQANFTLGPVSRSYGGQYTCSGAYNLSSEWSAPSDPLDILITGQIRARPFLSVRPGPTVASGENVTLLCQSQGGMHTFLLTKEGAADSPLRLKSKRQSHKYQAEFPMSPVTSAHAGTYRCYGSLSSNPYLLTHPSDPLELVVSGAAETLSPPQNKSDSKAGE
T12 sequence (O75023 24-590 limits assumed): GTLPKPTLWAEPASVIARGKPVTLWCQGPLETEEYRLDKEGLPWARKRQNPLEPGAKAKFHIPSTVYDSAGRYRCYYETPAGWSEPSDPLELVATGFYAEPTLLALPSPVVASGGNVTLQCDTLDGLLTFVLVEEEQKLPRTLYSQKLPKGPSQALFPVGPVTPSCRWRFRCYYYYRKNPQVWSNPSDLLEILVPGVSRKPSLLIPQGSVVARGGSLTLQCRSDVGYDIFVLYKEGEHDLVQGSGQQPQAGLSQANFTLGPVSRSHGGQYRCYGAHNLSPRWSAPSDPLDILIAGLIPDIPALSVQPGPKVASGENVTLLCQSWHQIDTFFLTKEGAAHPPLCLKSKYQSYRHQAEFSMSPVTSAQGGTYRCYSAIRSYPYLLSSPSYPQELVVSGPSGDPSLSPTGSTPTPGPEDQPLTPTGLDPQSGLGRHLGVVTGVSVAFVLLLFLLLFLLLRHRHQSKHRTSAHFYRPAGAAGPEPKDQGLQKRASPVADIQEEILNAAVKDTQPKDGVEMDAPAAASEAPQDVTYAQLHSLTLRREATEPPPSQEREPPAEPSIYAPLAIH
T14 sequence (A6NI73 42-299 limits assumed): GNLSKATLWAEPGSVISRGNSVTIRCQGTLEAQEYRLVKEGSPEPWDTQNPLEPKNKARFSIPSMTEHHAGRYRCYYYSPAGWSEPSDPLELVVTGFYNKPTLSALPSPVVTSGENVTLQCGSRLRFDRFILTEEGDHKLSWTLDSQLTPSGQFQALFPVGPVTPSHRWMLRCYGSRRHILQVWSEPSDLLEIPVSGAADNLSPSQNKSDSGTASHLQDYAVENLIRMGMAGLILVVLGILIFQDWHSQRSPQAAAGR
T11 sequence (P59901 24-499 limits assumed): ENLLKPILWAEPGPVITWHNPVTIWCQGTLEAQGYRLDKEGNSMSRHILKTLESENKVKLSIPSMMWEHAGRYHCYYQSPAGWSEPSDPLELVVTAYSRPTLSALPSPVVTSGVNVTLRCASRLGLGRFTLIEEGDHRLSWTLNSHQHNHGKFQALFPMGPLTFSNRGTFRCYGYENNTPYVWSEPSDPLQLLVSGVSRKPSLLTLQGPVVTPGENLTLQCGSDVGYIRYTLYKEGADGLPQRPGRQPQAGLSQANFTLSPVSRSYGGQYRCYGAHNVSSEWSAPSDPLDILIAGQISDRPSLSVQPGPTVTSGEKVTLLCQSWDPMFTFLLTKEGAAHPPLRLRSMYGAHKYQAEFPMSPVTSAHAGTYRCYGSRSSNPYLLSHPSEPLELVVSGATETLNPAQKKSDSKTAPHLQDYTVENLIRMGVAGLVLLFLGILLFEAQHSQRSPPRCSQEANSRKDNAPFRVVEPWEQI

B1: D2M002-126 (antibody, V domains shown)
VH: QVQLVQSGAEVKKPGASVKVSCKASGYTFTSYWIEWVRQAPGQGLEWIGEILPGDESTNYNAKFKGRVTFTTDTSTSTAYMELRSLRSDDTAVYYCARSGAGGYDSGAFAYWGQGTLVTVSS
VL: AIQLTQSPSSLSASVGDRVTITCRASESVDTYGNSFMHWYQQKPGKAPKLLVYRTSNLESGVPSRFSGSGSGTDFTLTISSLQPEDFATYYCQQSNEDPWTFGGGTKVEIK
notes: Humanized and optimized variant of D2M002-026
[1]
  IC50 (read off the curve): ~1 µg/mL
[2]
  binding result: no binding (tested: about 30 µg/mL (log10 about 1.5))
[3]
  EC50 (read off the curve): ~0.2 µg/mL
[4]
  EC50: 0.388 µg/mL
  MaxMFI: 113000
[5]
  EC50: 1.45 µg/mL
[6]
  EC50: 0.206 µg/mL
  MaxMFI: 33600
[7]
  IC50 (read off the curve): ~1 µg/mL
[8]
  EC50 (read off the curve): ~0.1 µg/mL
[9]
  EC50: 0.102 µg/mL
  MaxMFI: 27500
[10]
  Kd: 0.515 nM
  koff: 2.17e-05 s⁻¹
  kon: 42100 M⁻¹ s⁻¹
[11]
  Kd: 0.366 nM
[12]
  EC50 (read off the curve): ~0.4 µg/mL
[13]
  EC50 (read off the curve): ~0.1 µg/mL
[14]
  IC50 (read off the curve): ~1 µg/mL
[15]
  EC50 (read off the curve): ~0.3 µg/mL
[16]
  Kd: 0.119 nM
  koff: 5.89e-05 s⁻¹
  kon: 496000 M⁻¹ s⁻¹
[17]
  IC50: 0.304 µg/mL
[18]
  IC50: 0.015 µg/mL
[19]
  Kd: 0.0482 nM
[20]
  IC50 (read off the curve): ~1 µg/mL
[21]
  EC50: 0.081 µg/mL
[22]
  binding result: no binding (tested: about 30 µg/mL (log10 about 1.5))
[23]
  IC50 (read off the curve): ~2 µg/mL
[24]
  IC50 (read off the curve): ~2 µg/mL

B2: Anti-LILRB1 antibody 3C1 (antibody, human IgG4 S228P, lambda, V domains shown)
VH: EVQLVESGGGLVQPGGSLRLSCAASGFTFSDYDMHWVRQATGKGLEWVATIDTAGDTYYPDSVRGRFTISRENAKNSLSLQMNSLRAGDTAVYFCARDVPGTGFDHWGQGTLVTVSS
VL: SSELTQDPAVSVALGQTVRITCQGDSLRSYYESWYQQKPGQAPVLVIYGKNNRPSGIPDRFSGSISGNTASLTITGTQAEDEADYYCNSRDNSGDHWVFGGGTRLTVLG
[25]
  binding result: no binding (tested: 5 µg/mL)
[26]
  binding result: no binding (tested: 5 µg/mL)
[27]
  IC50: 0.012 µg/mL
[28]
  binding result: no binding (tested: 5 µg/mL)
[29]
  binding result: no binding (tested: 5 µg/mL)
[30]
  EC50: 0.016 µg/mL
  gMFI (max): 23000
[31]
  binding result: no binding (tested: 5 µg/mL)
[32]
  binding result: no binding (tested: 5 µg/mL)
[33]
  binding result: no binding (tested: 5 µg/mL)
[34]
  binding result: no binding (tested: 5 µg/mL)
[35]
  binding result: no binding (tested: 5 µg/mL)
[36]
  EC50: 0.033 µg/mL
[37]
  EC50 (read off the curve): ~0.02 µg/mL
[38]
  binding result: no binding (tested: 5 µg/mL)
